Assay results from US20240117074A1 (published 2024).

Columns and labels:
[1] = target: T1, human CEACAM1, recombinant soluble (hCEACAM-1, R&D Systems #2244-CM-050) (human, UniProt P13688 35-428); experiment: ELISA, coated CEACAM family protein
T1 sequence (looked up): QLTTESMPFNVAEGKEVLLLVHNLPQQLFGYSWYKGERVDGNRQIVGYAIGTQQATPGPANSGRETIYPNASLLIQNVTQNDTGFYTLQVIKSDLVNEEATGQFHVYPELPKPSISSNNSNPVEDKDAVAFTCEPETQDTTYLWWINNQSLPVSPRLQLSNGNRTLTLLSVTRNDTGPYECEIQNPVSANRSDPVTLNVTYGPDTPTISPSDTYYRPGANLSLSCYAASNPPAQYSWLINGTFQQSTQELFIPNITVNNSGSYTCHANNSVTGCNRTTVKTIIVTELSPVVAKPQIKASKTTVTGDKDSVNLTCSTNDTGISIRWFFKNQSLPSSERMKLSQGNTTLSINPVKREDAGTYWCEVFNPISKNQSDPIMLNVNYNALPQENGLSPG
Experimental: (§1) 96-well plates were coated with 0.5 μg/mL antigen, hCEACAM-1 (2244-CM-050, R&D Systems), hCEACAM-5 (4128-CM-050, R&D Systems), hCEACAM-6 (3934-CM-050, R&D Systems) or CEACAM-8 (9639-CM-050, R&D Systems) in PBS over night at 4° C. After washing in PBS/0.05% Tween 20 (PBST), the plates were blocked with PBST, 2% BSA for at least 30 minutes at room temperature before a second round of washing. RUBY bsAbs, diluted in PBST, 0.5% BSA, were then added and allowed to bind for at least 1 hour at room temperature. […] Finally, a final round of washing was performed and bound complexes detected using SuperSignal Pico Luminescent as substrate and luminescence signals were measured using Fluostar Optima.

[2] = target: T2, human CEACAM6, recombinant soluble (hCEACAM-6, R&D Systems #3934-CM-050) (human, UniProt P40199 35-320); experiment: ELISA, coated CEACAM family protein
T2 sequence (looked up): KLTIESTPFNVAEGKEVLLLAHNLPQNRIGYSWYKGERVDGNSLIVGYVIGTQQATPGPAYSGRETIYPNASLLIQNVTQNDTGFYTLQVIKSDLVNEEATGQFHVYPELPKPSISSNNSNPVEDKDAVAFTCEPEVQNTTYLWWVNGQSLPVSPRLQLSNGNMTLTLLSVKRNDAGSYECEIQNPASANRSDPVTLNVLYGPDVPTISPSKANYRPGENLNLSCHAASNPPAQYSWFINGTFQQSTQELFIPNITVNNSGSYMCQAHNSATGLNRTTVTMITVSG
Experimental: as §1

[3] = target: T3, CEACAM8, recombinant soluble (CEACAM-8, R&D Systems #9639-CM-050) (UniProt P31997 35-320, limits assumed); experiment: ELISA, coated CEACAM family protein
T3 sequence (looked up): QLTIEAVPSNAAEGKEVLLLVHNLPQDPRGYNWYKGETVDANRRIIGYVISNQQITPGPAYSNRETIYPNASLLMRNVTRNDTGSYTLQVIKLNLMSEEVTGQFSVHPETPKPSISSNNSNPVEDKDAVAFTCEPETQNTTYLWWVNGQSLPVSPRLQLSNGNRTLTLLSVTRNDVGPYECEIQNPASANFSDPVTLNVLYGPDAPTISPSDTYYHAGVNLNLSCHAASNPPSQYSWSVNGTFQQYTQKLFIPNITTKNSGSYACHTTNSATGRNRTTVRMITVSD
Experimental: as §1

[4] = target: T4, biotinylated human CD40-mouse Fc (Ancell #504-030) (human, UniProt P25942 21-193, biotinylated); experiment: dual target ELISA: CEACAM5 coated, biotinylated hCD40-muIg detection
T4 construct: Bought fusion protein; also called hCD40-muIg; CD40mFc-biotin; not shown: mouse Ig Fc of the bought fusion protein
T4 sequence (P25942 21-193): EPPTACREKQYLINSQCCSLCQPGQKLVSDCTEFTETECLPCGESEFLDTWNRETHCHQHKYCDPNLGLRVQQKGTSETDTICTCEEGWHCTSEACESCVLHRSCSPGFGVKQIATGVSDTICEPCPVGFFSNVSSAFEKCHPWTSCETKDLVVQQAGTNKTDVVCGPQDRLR
Experimental: ELISA plates were coated with human EpCAM, bsAb was added followed by detection using goat anti human-kappa light chain-HRP.
as §1

B1: Multi48 (bispecific antibody)
heavy 1: not shown
light: DIQMTQSPSSLSASVGDRVTITCRASQSISSYLNWYQEKPGKAPKLLIYAASSLQSGVPSRFSGSGSGTDFTLTISSLQPEDFATYYCQQYGRNPPTFGQGTKLEIKRTVAAPSVFIFPPSDEQLKSGTASVVCYLNNFYPREAKVQWKVDNALQSGNSQESVTEQDSKDSTYSLWSTLTLSKADYEKHKVYACEVTHQGLSSPVTKSFNRGEC
heavy 2: EVQLLESGGGLVQPGGSLRLSCAASGFTFGDHAMSWVREAPGKGLEWVSAISGYGHSTGYADSVKGRFTISRDNSKNTLYLQMNSLRAEDTAVYYCARNHYRVGLDYWGQGTLVTVSSASTKGPSVFPLAPSSKSTSGGTAALGCLVKDYFPEPVTVSWNSGALTSGVHTFPAVLQSSGLYSLTSVVEVPSSSLGTQTYICNVNHKPSNTKVDKKVEPKSC
notes: copies: 2 + 2 + 2
Question: Does B1 bind [1]?
Answer: no binding

Question: Does B1 bind [2]?
Answer: no binding

Question: Does B1 bind [3]?
Answer: no binding

Question: Does B1 bind [4]?
Answer: binds
